Test results from US4235962A, “Combination kit for transaminase assay of a body fluid” (The Dow Chemical Company, priority 1978, dated 1980).

B1: ALT (alanine 2-oxoglutarate aminotransferase) (Homo sapiens) (protein)
chain: ASSTGDRSQAVRHGLRAKVLTLDGMNPRVRRVEYAVRGPIVQRALELEQELRQGVKKPFTEVIRANIGDAQAMGQRPITFLRQVLALCVNPDLLSSPNFPDDAKKRAERILQACGGHSLGAYSVSSGIQLIREDVARYIERRDGGIPADPNNVFLSTGASDAIVTVLKLLVAGEGHTRTGVLIPIPQYPLYSATLAELGAVQVDYYLDEERAWALDVAELHRALGQARDHCRPRALCVINPGNPTGQVQTRECIEAVIRFAFEERLFLLADEVYQDNVYAAGSQFHSFKKVLMEMGPPYAGQQELASFHSTSKGYMGECGFRGGYVEVVNMDAAVQQQMLKLMSVRLCPPVPGQALLDLVVSPPAPTDPSFAQFQAEKQAVLAELAAKAKLTEQVFNEAPGISCNPVQGAMYSFPRVQLPPRAVERAQELGLAPDMFFCLRLLEETGICVVPGSGFGQREGTYHFRMTILPPLEKLRLLLEKLSRFHAKFTLEYS
B2: AST (aspartate 2-oxoglutarate aminotransferase) (Homo sapiens) (protein)
chain: APPSVFAEVPQAQPVLVFKLTADFREDPDPRKVNLGVGAYRTDDCHPWVLPVVKKVEQKIANDNSLNHEYLPILGLAEFRSCASRLALGDDSPALKEKRVGGVQSLGGTGALRIGADFLARWYNGTNNKNTPVYVSSPTWENHNAVFSAAGFKDIRSYRYWDAEKRGLDLQGFLNDLENAPEFSIVVLHACAHNPTGIDPTPEQWKQIASVMKHRFLFPFFDSAYQGFASGNLERDAWAIRYFVSEGFEFFCAQSFSKNFGLYNERVGNLTVVGKEPESILQVLSQMEKIVRITWSNPPAQGARIVASTLSNPELFEEWTGNVKTMADRILTMRSELRARLEALKTPGTWNHITDQIGMFSFTGLNPKQVEYLVNEKHIYLLPSGRINVSGLTTKNLDYVATSIHEAVTKIQ

What was measured:
[1] = substrate: C[C@H](N)C(=O)O; assay: purified protein, by the assay type; conditions: other: 15 mM 2-oxoglutarate
[2] = substrate: N[C@@H](CC(=O)O)C(=O)O; assay: purified protein, by the assay type
From the text: For precise measurement of a bimolecular reaction of the type under discussion, the rate of a reaction, at a given "B" concentration should be independent of A's concentration (i.e. at or near apparent Vmax with respect to A).
A. AST cross measurement in an ALT test for a ping pong mechanism, [formula] […] [formula]
Going through the same mathematical explanation: [formula]

Protein | Km [1] | Km ([2]; other: 0.2 mM 2-oxoglutarate) | Km ([2]; other: 15 mM 2-oxoglutarate)
B1 | 18.1 mM |  | 
B2 |  | 0.91 mM | 10 mM
